Residue numbers refer to the chain shown, from its start.
Key:
myostatin [1] = biological target: T1, myostatin (UniProt O14793 267-375); experiment: cell-based or functional assay
T1 sequence (looked up): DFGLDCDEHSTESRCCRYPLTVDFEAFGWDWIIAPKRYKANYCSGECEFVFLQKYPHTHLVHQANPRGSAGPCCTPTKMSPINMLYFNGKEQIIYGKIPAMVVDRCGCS

activin A = biological target: T2, activin A (UniProt P08476 311-426); experiment: cell-based or functional assay
T2 sequence (looked up): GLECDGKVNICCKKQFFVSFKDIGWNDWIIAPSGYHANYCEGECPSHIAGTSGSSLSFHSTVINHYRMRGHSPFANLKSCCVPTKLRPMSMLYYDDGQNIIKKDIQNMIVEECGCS

activin B = biological target: T3, activin B (UniProt P09529 293-407); experiment: cell-based or functional assay
T3 sequence (looked up): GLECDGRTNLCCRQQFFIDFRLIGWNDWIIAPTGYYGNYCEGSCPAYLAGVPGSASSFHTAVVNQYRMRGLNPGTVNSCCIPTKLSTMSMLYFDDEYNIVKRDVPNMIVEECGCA

BMP9 [2] = biological target: T4, BMP9 (UniProt Q9UK05 320-429); experiment: cell-based or functional assay
T4 sequence (looked up): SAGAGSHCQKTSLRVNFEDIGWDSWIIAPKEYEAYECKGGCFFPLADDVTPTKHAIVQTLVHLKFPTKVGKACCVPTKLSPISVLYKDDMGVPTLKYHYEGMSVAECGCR

BMP9 [3] = biological target: T4, BMP9; experiment: Octet Red BLI; trap loaded on AHC biosensor
Method: (§1) Myostatin and BMP9 binding activities of various hybrid ActRIIB ligand trap proteins were initially analyzed using Octect Red (ForteBio). Purified proteins or conditioned media were individually loaded to AHC biosensors with maximum loading. Following a baseline washing phase, the sensors were exposed to 10 nM myostatin or BMP9, respectively, for an association step followed by a dissociation step. All experiments were performed with shaking at 1,000 rpm. Binding activity was analyzed using ForteBio's software with KD being calculated using the ratio Kd/Ka.

myostatin [4] = biological target: T1, myostatin; experiment: Octet Red BLI; protein on AHC biosensor, 10 nM ligand; legend +++ KD <10^-8M
Method: as §1

B1: wild-type ActRIIB-ECD-Fc fusion protein (Fc fusion, not shown: a dimerising Fc or GST)
chain: ETRECIYYNANWELERTNQSGLERCEGEQDKRLHCYASWRNSSGTIELVKKGCWLDDFNCYDRQECVATEENPQVYFCCCEGNFCNERFTHLPEAGGPEVTYEPPPTAPTGGGGSESKYGPPCPPCP
Cell-Based IC50 (nM) Against Myostatin; C2C12-CAGA-luc reporter (myostatin [1]): 1.24 nM | Cell-Based IC50 (nM) Against Activin A; C2C12-CAGA-luc reporter (activin A): 1.27 nM | Cell-Based IC50 (nM) Against Activin B; C2C12-CAGA-luc reporter (activin B): 1.04 nM | Cell-Based IC50 (nM) Against BMP9; C2C12-BRE-luc reporter (BMP9 [2]): 3.4 nM

B2: AG-0014 hybrid ActRIIB ligand trap protein (Fc fusion, not shown: a dimerising Fc or GST)
chain: B1 chain with E26Y, E28D, Q29K, L33R
Cell-Based IC50 (nM) Against Myostatin; C2C12-CAGA-luc reporter (myostatin [1]): 0.95 nM | Cell-Based IC50 (nM) Against Activin A; C2C12-CAGA-luc reporter (activin A): 1.15 nM | Cell-Based IC50 (nM) Against Activin B; C2C12-CAGA-luc reporter (activin B): 2.1 nM

B3: AG-0011 hybrid ActRIIB ligand trap protein (Fc fusion)
chain: B1 chain with E28D, A68E, T69K, E70K, E71D, N72S, Q74E, F84M
notes: ECD - linker - hinge linker - Fc; signal peptide left out; not shown: human Fc domain
binding result (BMP9 [3]): no binding (tested: 10 nM BMP9) | KD (myostatin [4]): < 10 nM

B4: AG-0027 hybrid ActRIIB ligand trap protein (Fc fusion, not shown: a dimerising Fc or GST)
chain: B1 chain with E28D, F58I, E70K
Cell-Based IC50 (nM) Against Myostatin; C2C12-CAGA-luc reporter (myostatin [1]): 1.14 nM | Cell-Based IC50 (nM) Against Activin A; C2C12-CAGA-luc reporter (activin A): 1.62 nM | Cell-Based IC50 (nM) Against Activin B; C2C12-CAGA-luc reporter (activin B): 1.3 nM

Reference: US20260209306A1 (ALIVEGEN, published 2026)
